The source of these data is paper PMC6614801, “Structural basis for the function of SuhB as a transcription factor in ribosomal RNA synthesis” (Nucleic Acids Research, 2019).

Residue numbers refer to the chain shown, from its start.

T1: SuhB^K108A (E. coli, UniProt P0ADG4 1-267, K108A)
T1 sequence (looked up): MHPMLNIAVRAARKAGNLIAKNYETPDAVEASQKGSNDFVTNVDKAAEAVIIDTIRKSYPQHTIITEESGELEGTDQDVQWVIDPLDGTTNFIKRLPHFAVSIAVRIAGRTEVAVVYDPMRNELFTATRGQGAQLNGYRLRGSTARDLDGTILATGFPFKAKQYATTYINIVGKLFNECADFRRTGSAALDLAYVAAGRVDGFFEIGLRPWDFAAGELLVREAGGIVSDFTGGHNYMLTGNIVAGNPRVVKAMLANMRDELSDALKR

B1: SuhB (inositol mono-phosphatase SuhB), wild type (natural protein, E. coli, UniProt P0ADG4 1-267, looked up)
chain: T1 sequence (looked up) with A108K
notes: Inositol mono-phosphatase SuhB of E. coli, PCR-amplified from E. coli (DH5α) genomic DNA, full length; Dimer by SEC-MALS and in both crystal structures; also called wt SuhB; SuhB^II; source: E. coli BL21(DE3)pLysS, purified (Ni-NTA, TEV digestion, SEC)
B2: SuhB^KL251/254AA (natural protein, E. coli, UniProt P0ADG4 1-267, looked up)
chain: T1 sequence (looked up) with A108K, K251A, L254A
notes: also called KL/AA
B3: N-terminally His6-tagged NusA^AR2 (domain or fragment, E. coli, UniProt P0AFF6 427-495, looked up)
chain: DNKPADDLLNLEGVDRDLAFKLAARGVCTLEDLAEQGIDDLADIEGLTDEKAGALIMAARNICWFGDEA
notes: C-terminal acidic repeat 2 (AR2) domain of E. coli NusA, residues 427–495; Same construct as m3, with the His6 tag kept for capture on the NTA chip in SPR; also called wt AR2; source: recombinant (pETM-11), purified via the same protocol as full-length NusA (19); not shown: His6, N-terminal, kept

Holding throughout (settings): both partners purified
One assay addresses T2, NusA, full length (E. coli, UniProt P0AFF6 1-495).
T2 construct: Transcription factor NusA of E. coli, full length; also called NusA^FL; N-utilization substance A; source: recombinant, produced and purified as described previously (18,19)
In words: SEC; analytical SEC of mixtures of proteins only; Superdex 200 Increase 3.2/300; 20 μM largest component, 25 μM all smaller components; 20 mM HEPES–NaOH pH 7.5, 50 mM NaCl, 1 mM DTT; incubated at room temperature for 15 min; fractions on SDS-PAGE. For orientation: Size exclusion chromatography separates by hydrodynamic size, large species first.

The target of another assay is T1, SuhB^K108A. Description: SPR; Biacore, Sensor Chip NTA, 20°C; N-terminally His6-tagged NusA^AR2 immobilised; single cycle kinetics with SuhB variants at 25, 50, 100, 150 and 200 nM; 20 mM HEPES–NaOH pH 7.5, 50 mM NaCl, 1 mM DTT. (SPR reads the build-up and loss of mass on a sensor chip optically.)
The target of assay [1] is B1. Described as above.

For the molecule B1, in the assay with NusA, full length, the binding result was “binds”. Same read-out and setting: as for B2, the entry is “binds”. The Kd is the free concentration of one partner at which half of the binding sites on the other are occupied at equilibrium, for simple one-to-one binding. Read a low Kd as a tighter complex. For the molecule B3, the Kd with SuhB^K108A was determined as 435 nM; in assay [1] it was 94 nM.
